# Source: patent US20110076347A1 (BEN GURION UNIVERSITY OF THE NEGEV RESEARCH AND DEVELOPMENT …, published 2011)
# T1: human recombinant calbindin D28k (human, UniProt P05937 1-261, limits assumed)
# T1 sequence (looked up): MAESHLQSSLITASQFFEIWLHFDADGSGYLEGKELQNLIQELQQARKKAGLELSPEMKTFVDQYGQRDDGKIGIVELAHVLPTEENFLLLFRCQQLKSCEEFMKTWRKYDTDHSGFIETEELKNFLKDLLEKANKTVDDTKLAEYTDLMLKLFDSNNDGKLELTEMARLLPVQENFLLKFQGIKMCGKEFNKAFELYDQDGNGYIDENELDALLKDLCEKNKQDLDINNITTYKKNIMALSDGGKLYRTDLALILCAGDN
# Biological target: human brain inositol monophosphatase (IMPase), in postmortem crude homogenate (human) (UniProt P29218)
# Assay: cell-based or functional assay
# Sequence of human brain inositol monophosphatase (IMPase), in postmortem crude homogenate (human) (P29218 whole entry): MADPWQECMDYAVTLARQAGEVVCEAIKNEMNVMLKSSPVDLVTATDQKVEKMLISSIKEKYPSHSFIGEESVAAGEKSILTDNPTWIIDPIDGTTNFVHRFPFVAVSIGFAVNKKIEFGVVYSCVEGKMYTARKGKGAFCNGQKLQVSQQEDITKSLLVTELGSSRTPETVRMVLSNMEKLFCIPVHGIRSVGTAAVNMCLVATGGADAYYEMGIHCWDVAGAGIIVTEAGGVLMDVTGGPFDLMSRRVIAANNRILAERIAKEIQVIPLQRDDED
row,Molecule,human brain IMPase activity
1,human recombinant calbindin D28k (from UniProt P05937 1-261),3 fold

# Biological target: T1, human recombinant calbindin D28k
# Assay: cell-based or functional assay
row,Molecule,% Inhibition of Calbindin Activation
1,IAEKYP [Peptide 4 (Ile-Ala-Glu-Lys-Tyr-Pro)],89%
2,SYEHYP [Peptide 5 (Ser-Tyr-Glu-His-Lys-Pro)],56%
3,IAEAYP [Peptide 6 (Ile-Ala-Glu-Ala-Tyr-Pro)],0%
4,KHIKPS [Peptide 7 (Lys-His-Ile-Lys-Pro-Ser)],56%
5,IAAAYP [Peptide 8 (Ile-Ala-Ala-Ala-Tyr-Pro)],0%
6,IKEKY [Peptide 9 (Ile-Lys-Glu-Lys-Tyr)],0%
7,KEK [Peptide 10 (Lys-Glu-Lys)],0%
8,IKEKYP [Peptide 1 (Ile-Lys-Glu-Lys-Tyr-Pro)],78%
9,IKAKYP [Peptide 2 (Ile-Lys-Ala-Lys-Tyr-Pro)],100%
10,IKEAYP [Peptide 3 (Ile-Lys-Glu-Ala-Tyr-Pro)],100%
